Experiment: yeast display, Sf9 membrane polyspecificity reagent, FACS + sequencing; frameworks hold sequencing errors
Method in brief: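 After 36–48 hours of galactose induction, yeast (Saccharomyces cerevisiae BJ5465) displaying a synthetic nanobody library were stained at 4 °C for 1 hour with 10% biotinylated, detergent-solubilized Sf9 membrane reagent. Streptavidin microbeads enriched the stained cells before FACS sorting into low and high (top ~1%) gates on anti-HA and streptavidin fluorescence. Each clone's polyreactivity label reflects its gate of origin.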

| Sequence | polyreactivity (PSR sort gate) |
| --- | --- |
| QVQLVESGGGLVQAGGSLRLSCAASGGTFQSNAMGWYRQAPGKERELVASITSRGSSTYYADSVKGRFTISRDNAKNTFYLLMNSLKPEDTAVYYCAKGSSWQIYYKGGIKGGYWGQGTQVTVSS | low polyreactivity |
| QVQLVESGGGLVQAGGSLRLSCAASGGTFRANAMVWYRQAPGKERELVAAISFRGGTTYYADSVKGRFTISRDNAKTTVYLQMNSLKPEDTAVYYCAAGRRGSYYYWGQGTQVTVSS | high polyreactivity |
| QVQLVESGGGLVQAGGSLRLSCAASGGTFRLNAMGWYRQAPGKERELVATITRRGGSTYYADSVKGRFTISRDNAKNTVYLQMNSLKPEDTAVYYCAARDVYRGGLFDYWGQGTQVTVSS | high polyreactivity |
| QVQLVESGGGLVQAGGSLRLSCAASGGTFRVYAMGWYRQAPGKERELVAAISGGGRTYADSVKGRFTISRDNAKITVYLQMNSLKPEDTAVYYCNTRRYYRVTTVKRYDYWGQGTQVTVSS | high polyreactivity |
| QVQLVESGGGLVQAGGSLRLSCAASGGTFRVYVMGLYRQATGKERELVAAISRGGGSTYYADSVKGRFTISRDNAKNTVYLQMNSLKPEDTAVYYCAARVWRYPWRASEYDYWGQGTQVTVSS | high polyreactivity |
| QVQLVESGGGLVQAGGSLRLSCAASGGTFSFYAMGWYRQAPGKEREFVAAITASDGSTYYADSVKGRFTSSRDNAKNTVYLQMNSLKPEDTAVYYCAADAYGYKFNSWGQGTQVTVSS | low polyreactivity |
| QVQLVESGGGLVQAGGSLRLSCAASGGTFSGYTMGWYRQAPGKERELVAAINWSGGRTYYADSVKGRFTISRDNAKNTAYLQMNSLKPEDTAVYYSNKYGLYYREYDYWGQGTQVTVSS | high polyreactivity |
| QVQLVESGGGLVQAGGSLRLSCAASGGTFSPYDMGWYRQAPGKERELVASITGSGGSTYYADSVKGRFTISRGNAKNTVYLQMNSLKPEETAVYYCAAQGYWTYWPYLLRLYDYWGQGTQVTVSS | low polyreactivity |
| QVQLVESGGGLVQAGGSLRLSCAASGGTFSTNAMGWYRQAPGKERELVAAISLSGGRTYADSVKGRFTISRDNAKNTVYLQMNSLKPEDTAVYYCNADSAGITRARSELDYWGQGTQVTVSS | low polyreactivity |
| QVQLVESGGGLVQAGGSLRLSCAASGGTFSWYAMGWYRQAPGKERELVAAITARGGSTYYADSVKGRFTISRDNAKNTVYLQMNSLKPEDTAVYYCNKRTRSLVRYNSGGYSVGYWGQCTQVTVSS | high polyreactivity |
| QVQLVESGGGLVQAGGSLRLSCAASGGTFSYNAMGWYRQAPGKERELVAAISWSGTRTYYADSVKGRFTISRDNAKNTVYLQMNSLKPEDTAVYYCNKPPPNRGRYDYWGQGTQVTVSS | low polyreactivity |
| QVQLVESGGGLVQAGGSLRLSCAASGGTFTHYGMGWYRQAPGKERELVAAITWTASSTYYADSVKGRFTISRDNAKNTVYLQMNSLKPEDTAVYYCATSYYYWGHTYDYWGQGTQVTVSS | low polyreactivity |
| QVQLVESGGGLVQAGGSLRLSCAASGGTFTIYAMGWYRQAPGKERELVATINRGDRTNYADSVKGRFTISRDNAKNTVYLQMNSLKPEDTAVYYCAADFYYWYRGVYFVTRNYYWGQGTQVTVSS | high polyreactivity |
| QVQLVESGGGLVQAGGSLRLSCAASGGTFVRYVMGWYRPAPGKERELVAAISGSGGSTYYADTVKGRFTISRDNAKNTVYLQMNSLKPEASAVYYCASVYYWSKFYYWGQGTQVTVSS | high polyreactivity |
| QVQLVESGGGLVQAGGSLRLSCAASGGTFVSNAMGWYRHAPGKERELVAAITTGGTTYADSVKGRFTISRDNAKNSVYLQMKSLKPEDSAVYYCAADIYLLILGRSILQFDYWGQGTQVTVSS | low polyreactivity |
| QVQLVESGGGLVQAGGSLRLSCAASGGTFVSYVMGWYRQAPGKEREWVAAISVSGGRTYYADSVKGRFTISRDNAKNTVYLQMNSLKPEDTAVYYCAADSVVVGSPGNDYWGQGTQVTVSS | high polyreactivity |
| QVQLVESGGGLVQAGGSLRLSCAASGGTFVYSAMGWYRQAPGKERELVAAINWSGGSTYYADSVKGRFTISRDNAKNTVYLQMNILKAEDTAVLLLQRSGLRRSGVWFDYWGQGTQVTVSS | low polyreactivity |
| QVQLVESGGGLVQAGGSLRLSCAASGGTFVYYAMGWYRQAPGKERELVAAITSRGTSTYYADSVKGRFTISRDNAKNTVYLQMNSLKPEDTAVYYCAAGTPRGILRNSSYNYWGQGTQVTVSS | high polyreactivity |
| QVQLVESGGGLVQAGGSLRLSCAASGGTFVYYTMGWYRQAPGKERELVAAISGRGGRTYYADSVKGRFTISRDNAKNTVYLQMNSLKPEDTAVYYCTATQIGPYYLPFDSWGQGTQVTVSS | high polyreactivity |
| QVQLVESGGGLVQAGGSLRLSCAASGGTFWLYAMGWYRQAPGKEREFVAAISYSGGSTYYADSVKGRFTISRDHAKNTVYLQMNSLKPEDTAVYYCAASAYYLDYDYWGQGTQVTVSS | high polyreactivity |
| QVQLVESGGGLVQAGGSLRLSCAASGGTFWVNMGWYRQAPGKEREFVAAITWSAGSTYYADSVKGRFTISRDNAKNTVYLQMNSLKPEDTAVYYCAGGGGHYQEYLMEDYWGQGTQVTVSS | high polyreactivity |
| QVQLVESGGGLVQAGGSLRLSCAASGGTFWYYAMGWYRQAPGKEREFVAAISSRGGNTYYADSVKGRFTISRDNAKNTVYLQMNSLKPEDTAVYYCNAKTHRRYSENYYWGQGTQVTVSS | high polyreactivity |
| QVQLVESGGGLVQAGGSLRLSCAASGGTFYFYAMGWYRQAPGKERELVATITRGGSTYYADSVKGRFTISRDNAKNTVYLQMNSLKPEDTAVYYCAARQYSRRRSPVSTWYYYWGQGTQVTVSS | high polyreactivity |
| QVQLVESGGGLVQAGGSLRLSCAASGGTFYINTMGWNRQAPGKERELVATITIVVSTKYADSVKGRFTISRDNAKNTVYLQMNSLNPEDTAVYYCAKDDVYRDSFLVFDGEMVYWGQGTQVTVSS | low polyreactivity |
| QVQLVESGGGLVQAGGSLRLSCAASGGTFYPYAMGWYRQAPGKERELVAAISRGGGSTSYADSVKGRFTISRDNAQNTVYLQMNSLKPEDTAVYYSNAYTYYHANHEQGFGYWGQGTQVTVSS | low polyreactivity |
| QVQLVESGGGLVQAGGSLRLSCAASGGTFYRYAMGWYRQAPGKEMELVAAISSRGGSTYYADSVKGRFTISRDNAKNTVYLQMNSLKPEDTAVYYCAALFYLTPWQYDYWGQGTQVTVSS | high polyreactivity |
| QVQLVESGGGLVQAGGSLRLSCAASGGTFYRYAMGWYRQAPGNERELVAAISSSGGRTYYADSVKGRFTISRDNAKNTVYVQMNSLKPEDTAVYYCNARYPRLHRTYNYWGQGTQVTVSS | high polyreactivity |
| QVQLVESGGGLVQAGGSLRLSCAASGGTFYVYAMGWYRQAPGKERELVAAISTSDGITYYADSVKGRFTISRDNAKNTVYLQMNSLKPEDTAVYYCAAEFFSSFTYAYDYWGQGTQVTVSS | high polyreactivity |
| QVQLVESGGGLVQAGGSLRLSCAASGGTFYVYDMGWYRQTPGKEREFVADINFSTGITYYADSVKGRFTISRDNAKNTVYLQMNSLKPEDTAVYYCNADTAFYVYWYWIYDYWGQGTQVTVSS | high polyreactivity |
| QVQLVESGGGLVQAGGSLRLSCAASGGTFYYNAMGWYRQAPGKERELVAGITQSGGNTYYADSVKGRFTISRDNAKNTDYLQMNSLKPEDTAVYYCAARIRGTWKYGYWGQGTQVTVSS | low polyreactivity |

Source: the nanobody polyreactivity screen of Harvey et al. (2022)
